{
  "source": "paper PMC4749569",
  "about": "“Atomic structure of the 26S proteasome lid reveals the mechanism of deubiquitinase inhibition” (eLife, 2016)",
  "binders": {"B1": {"name": "Rpn8 (K86A,K88A) (natural protein)", "chain": "MSLQHEKVTIAPLVLLSALDHYERTQTKENKRCVGVILGDANSSTIRVTNSFALPFEEDEKNSDVWFLDHNYIENMNEMCKKINAAEALIGWYHSGPKLRASDLKINELFKKYTQNNPLLLIVDVKQQGVGLPTDAYVAIEQVKDDGTSTEKTFLHLPCTIEAEEAEEIGVEHLLRDVRDQAAGGLSIRLTNQLKSLKGLQSKLKDVVEYLDKVINKELPINHTILGKLQDVFNLLPNLGTPDDDEIDVENHDRINISNNLQKALTVKTNDELMVIYISNLVRSIIAFDDLIENKIQNKKIQEQRVKDKQSKVSDDSESESGDKEATAPLIQRKNKKN"}, "B2": {"name": "Rpn5 (Y273A) (natural protein)", "chain": "MSRDAPIKADKDYSQILKEEFPKIDSLAQNDCNSALDQLLVLEKKTRQASDLASSKEVLAKIVDLLASRNKWDDLNEQLTLLSKKHGQLKLSIQYMIQKVMEYLKSSKSLDLNTRISVIETIRVVTENKIFVEVERARVTKDLVEIKKEEGKIDEAADILCELQVETYGSMEMSEKIQFILEQMELSILKGDYSQATVLSRKILKKTFKNPKYESLKLEYYNLLVKISLHKREYLEVAQYLQEIYQTDAIKSDEAKWKPVLSHIVYFLVLSPAGNLQNDLIHKIQNDNNLKKLESQESLVKLFTTNELMRWPIVQKTYEPVLNEDDLAFGGEANKHHWEDLQKRVIEHNLRVISEYYSRITLLRLNELLDLTESQTETYISDLVNQGIIYAKVNRPAKIVNFEKPKNSSQLLNEWSHNVDELLEHIETIGHLITKEEIMHGLQAK"}, "B3": {"name": "Rpn5 (H282A) (natural protein)", "chain": "B2 chain with A273Y, H282A"}, "B4": {"name": "Rpn5 K283A (natural protein)", "chain": "B2 chain with A273Y, K283A"}, "B5": {"name": "Rpn5 (H282A,K283A) (natural protein)", "chain": "B2 chain with A273Y, H282A, K283A"}, "B6": {"name": "Rpn5 (N275A) (natural protein)", "chain": "B2 chain with A273Y, N275A"}, "B7": {"name": "Rpn8 (Q115A) (natural protein)", "chain": "B1 chain with A86K, A88K, Q115A"}, "B8": {"name": "Rpn8 (K86A) (natural protein)", "chain": "B1 chain with A88K"}, "B9": {"name": "Rpn8 (K88A) (natural protein)", "chain": "B1 chain with A86K"}, "B10": {"name": "Rpn5 (natural protein, S. cerevisiae (yeast))", "chain": "B2 chain with A273Y"}},
  "key": {"[1]": {"target": "T1, Rpn9 (S. cerevisiae (yeast)) (UniProt Q04062)", "T1 sequence": "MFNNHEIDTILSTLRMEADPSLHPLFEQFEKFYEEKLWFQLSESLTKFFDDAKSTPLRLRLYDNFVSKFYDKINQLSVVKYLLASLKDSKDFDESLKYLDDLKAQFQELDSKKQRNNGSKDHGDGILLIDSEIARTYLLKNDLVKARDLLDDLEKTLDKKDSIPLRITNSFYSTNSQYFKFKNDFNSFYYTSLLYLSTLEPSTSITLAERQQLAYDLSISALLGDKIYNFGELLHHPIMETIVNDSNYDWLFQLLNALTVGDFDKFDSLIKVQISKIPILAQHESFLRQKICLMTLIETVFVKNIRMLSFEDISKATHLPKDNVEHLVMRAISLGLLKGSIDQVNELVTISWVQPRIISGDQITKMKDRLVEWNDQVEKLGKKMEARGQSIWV"}, "[2]": {"target": "Rpn11 (S. cerevisiae (yeast)) (UniProt P43588)", "sequence (P43588 whole entry)": "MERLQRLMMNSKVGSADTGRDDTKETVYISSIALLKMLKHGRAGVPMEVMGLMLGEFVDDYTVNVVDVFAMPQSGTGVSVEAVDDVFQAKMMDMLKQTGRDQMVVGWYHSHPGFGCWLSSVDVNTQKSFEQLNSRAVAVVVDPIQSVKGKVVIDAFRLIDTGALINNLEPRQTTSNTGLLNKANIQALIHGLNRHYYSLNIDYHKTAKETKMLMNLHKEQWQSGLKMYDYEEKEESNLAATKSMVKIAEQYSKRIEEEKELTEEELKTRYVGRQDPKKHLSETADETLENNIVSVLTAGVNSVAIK"}, "[3]": {"target": "Rpn11 (S. cerevisiae (yeast)) (UniProt P43588)", "remark": "listed apart in the source"}, "[4]": {"target": "Rpn11 (S. cerevisiae (yeast)) (UniProt P43588)", "remark": "listed apart in the source"}, "Rpn11": {"target": "Rpn11 (S. cerevisiae (yeast), UniProt P43588 1-306)", "sequence (P43588 whole entry)": "as above", "assay": "cell-based or functional assay"}},
  "note": "Positions count from the first letter of the chain named. Numbers in names are those of the source.",
  "data": [
    {"binder": "B1", "values": [
      {"measurement": "Ub-AMC cleavage rate of Rpn11 in the isolated lid with this variant, relative to the isolated MPN heterodimer (% of the isolated MPN heterodimer)", "setting": "[1]", "result": 60}
    ]},
    {"binder": "B2", "values": [
      {"measurement": "Ub-AMC cleavage rate of Rpn11 in the isolated lid with this variant, relative to the isolated Rpn11/Rpn8 dimer (% of the isolated Rpn11/Rpn8 dimer)", "setting": "[2]", "result": 61}
    ]},
    {"binder": "B3", "values": [
      {"measurement": "Ub-AMC cleavage rate of Rpn11 in the isolated lid with this variant, relative to the free MPN heterodimer (% of the free MPN heterodimer)", "setting": "[3]", "result": 31}
    ]},
    {"binder": "B4", "values": [
      {"measurement": "Ub-AMC cleavage rate of Rpn11 in the isolated lid with this variant, relative to the free MPN heterodimer (% of the free MPN heterodimer)", "setting": "[3]", "result": 41}
    ]},
    {"binder": "B5", "values": [
      {"measurement": "Ub-AMC cleavage rate of Rpn11 in the isolated lid with this variant, relative to the free MPN heterodimer (% of the free MPN heterodimer)", "setting": "[3]", "result": 51}
    ]},
    {"binder": "B6", "values": [
      {"measurement": "Ub-AMC cleavage rate of Rpn11 in the isolated lid with this variant, relative to the isolated MPN heterodimer (% of the isolated MPN heterodimer)", "setting": "[4]", "result": 51}
    ]},
    {"binder": "B7", "values": [
      {"measurement": "Ub-AMC cleavage rate of Rpn11 in the isolated lid with this variant, relative to the isolated MPN heterodimer (% of isolated MPN levels)", "setting": "[1]", "result": 33}
    ]},
    {"binder": "B8", "values": [
      {"measurement": "Ub-AMC cleavage rate of Rpn11 in the isolated lid with this variant, relative to the free MPN heterodimer (% of the free MPN-heterodimer levels)", "setting": "[1]", "result": 33}
    ]},
    {"binder": "B9", "values": [
      {"measurement": "Ub-AMC cleavage rate of Rpn11 in the isolated lid with this variant, relative to the free MPN heterodimer (% of the free MPN-heterodimer levels)", "setting": "[1]", "result": 45}
    ]},
    {"binder": "B10", "values": [
      {"measurement": "Ub-AMC cleavage rate of Rpn11 in the isolated wild-type lid against the free Rpn11/Rpn8 dimer (500 nM enzyme, 2.5 μM Ubiquitin-AMC, 30°C, lid buffer)", "setting": "Rpn11", "result": 5, "unit": "fold lower"}
    ]}
  ]
}
